Data as given in paper PMC9352680, “A comprehensive thermodynamic model for RNA binding by the Saccharomyces cerevisiae Pumilio protein PUF4”.

T1: PUF4 RNA-binding domain (Saccharomyces cerevisiae, UniProt P25339 537-888)
T1 sequence: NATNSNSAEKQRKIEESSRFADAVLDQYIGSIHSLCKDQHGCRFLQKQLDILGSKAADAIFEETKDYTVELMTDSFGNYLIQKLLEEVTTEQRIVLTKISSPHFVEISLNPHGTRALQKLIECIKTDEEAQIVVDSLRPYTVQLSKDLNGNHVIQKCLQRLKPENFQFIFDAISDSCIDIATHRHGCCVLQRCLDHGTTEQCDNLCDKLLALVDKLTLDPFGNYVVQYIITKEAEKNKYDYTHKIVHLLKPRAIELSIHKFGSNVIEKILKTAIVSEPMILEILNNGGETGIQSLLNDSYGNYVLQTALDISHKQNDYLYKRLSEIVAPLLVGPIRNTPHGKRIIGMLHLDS


Biological target: T1, PUF4 RNA-binding domain
Assay: Mg; RNA-MaP; 20 mM Na-HEPES pH 7.4, 30 mM KOAc, 0.75 mM MgCl2, 0.1% Tween-20, 5% glycerol, 0.1 mg/mL BSA, 2 mM DTT; 25 C; 0.0125-409.6 nM protein
Conditions: tags: N-His6-TEV cleaved; C-SNAP kept, Cy3B-labelled; label: tethered on chip by stalled RNA polymerase

| Binder | Kd [nM] |
| --- | --- |
| UCUCUUUUUAUUAGUAUCUCUU (ssRNA) [Ib_S1_P5E.1_K5.1_C5.1_H5.1_[G2T]_A5.1_F5.1_[T8G]_T5.1] | > 2300 |
| Id_ii_S2_P3E.2_K3.1_C3.2_[C-2T]_H3.1_A3.1_F3.1_T3.2_[T9A]_[A10T] (ssRNA) RNA: UUUGAUUAAUAUGAUAUCGUUCUUUCUUUUGUAUAUAAUUUCUUUCUCGAUAUCAUAUUAAUCUUU | 4.47 |
| Id_ii_S2_P3E.2_K3.1_C3.2_[C-2T]_H3.1_A3.1_F3.1_T3.2_[T9A] (ssRNA) RNA: UUUGAUUAAUAUGAUAUCGUUCUUUCUUUUGUAUAUAAAUUCUUUCUCGAUAUCAUAUUAAUCUUU | 6.87 |
| Id_ii_S2_P3E.2_K3.1_C3.2_[C-2T]_H3.1_A3.1_F3.1_T3.2_[A10G] (ssRNA) RNA: UUUGAUUAAUAUGAUAUCGUUCUUUCUUUUGUAUAUAUGUUCUUUCUCGAUAUCAUAUUAAUCUUU | 2.61 |
| Id_ii_S2_P3E.2_K3.1_C3.2_[C-2T]_H3.1_A3.1_F3.1_T3.2_[A10C] (ssRNA) RNA: UUUGAUUAAUAUGAUAUCGUUCUUUCUUUUGUAUAUAUCUUCUUUCUCGAUAUCAUAUUAAUCUUU | 1.55 |
| Id_ii_S2_P3E.2_K3.1_C3.2_[C-2T]_H3.1_A3.1_F3.1_T3.2_[A10T] (ssRNA) RNA: UUUGAUUAAUAUGAUAUCGUUCUUUCUUUUGUAUAUAUUUUCUUUCUCGAUAUCAUAUUAAUCUUU | 1.56 |
| Id_ii_S2_P3E.2_K3.1_C3.2_[C-2T]_H3.1_A3.1_F3.1_T3.2 (ssRNA) RNA: UUUGAUUAAUAUGAUAUCGUUCUUUCUUUUGUAUAUAUAUUCUUUCUCGAUAUCAUAUUAAUCUUU | 1.24 |
| Id_ii_S2_P3E.2_K3.1_C3.2_[C-2A]_[T-1G]_H3.1_A3.1_F3.1_T3.2_[T9A]_[A10G] (ssRNA) RNA: UUUGAUUAAUAUGAUAUCGUUCUUUCUAGUGUAUAUAAGUUCUUUCUCGAUAUCAUAUUAAUCUUU | 10.2 |
| Id_ii_S2_P3E.2_K3.1_C3.2_[C-2A]_[T-1G]_H3.1_A3.1_F3.1_T3.2_[A10G] (ssRNA) RNA: UUUGAUUAAUAUGAUAUCGUUCUUUCUAGUGUAUAUAUGUUCUUUCUCGAUAUCAUAUUAAUCUUU | 5.7 |
| Id_ii_S2_P3E.2_K3.1_C3.2_[C-2A]_[T-1G]_H3.1_A3.1_F3.1_T3.2_[A10C] (ssRNA) RNA: UUUGAUUAAUAUGAUAUCGUUCUUUCUAGUGUAUAUAUCUUCUUUCUCGAUAUCAUAUUAAUCUUU | 38.5 |
| Id_ii_S2_P3E.2_K3.1_C3.2_[C-2A]_[T-1G]_H3.1_A3.1_F3.1_T3.2_[A10T] (ssRNA) RNA: UUUGAUUAAUAUGAUAUCGUUCUUUCUAGUGUAUAUAUUUUCUUUCUCGAUAUCAUAUUAAUCUUU | 4.88 |
| UCUCUUUAUAUUACUAUCUCUU (ssRNA) [Ib_S1_P5E.1_K5.1_C5.1_H5.1_[G2A]_A5.1_F5.1_[T8C]_T5.1] | 728 |
| Id_ii_S2_P3E.2_K3.1_C3.2_[C-2A]_[T-1C]_H3.1_A3.1_F3.1_T3.2_[T9G]_[A10C] (ssRNA) RNA: UUUGAUUAAUAUGAUAUCGUUCUUUCUACUGUAUAUAGCUUCUUUCUCGAUAUCAUAUUAAUCUUU | 7.15 |
| Id_ii_S2_P3E.2_K3.1_C3.2_[C-2A]_[T-1C]_H3.1_A3.1_F3.1_T3.2_[T9C]_[A10G] (ssRNA) RNA: UUUGAUUAAUAUGAUAUCGUUCUUUCUACUGUAUAUACGUUCUUUCUCGAUAUCAUAUUAAUCUUU | 49.4 |
| Id_ii_S2_P3E.2_K3.1_C3.2_[C-2A]_[T-1C]_H3.1_A3.1_F3.1_T3.2_[T9A] (ssRNA) RNA: UUUGAUUAAUAUGAUAUCGUUCUUUCUACUGUAUAUAAAUUCUUUCUCGAUAUCAUAUUAAUCUUU | 3.66 |
| Id_ii_S2_P3E.2_K3.1_C3.2_[C-2A]_[T-1C]_H3.1_A3.1_F3.1_T3.2_[A10C] (ssRNA) RNA: UUUGAUUAAUAUGAUAUCGUUCUUUCUACUGUAUAUAUCUUCUUUCUCGAUAUCAUAUUAAUCUUU | 1.69 |
| Id_ii_S2_P3E.2_K3.1_C3.2_[C-2A]_[T-1A]_H3.1_A3.1_F3.1_T3.2_[T9G]_[A10C] (ssRNA) RNA: UUUGAUUAAUAUGAUAUCGUUCUUUCUAAUGUAUAUAGCUUCUUUCUCGAUAUCAUAUUAAUCUUU | 10 |
| Id_ii_S2_P3E.2_K3.1_C3.2_[C-2A]_[T-1A]_H3.1_A3.1_F3.1_T3.2_[T9A]_[A10T] (ssRNA) RNA: UUUGAUUAAUAUGAUAUCGUUCUUUCUAAUGUAUAUAAUUUCUUUCUCGAUAUCAUAUUAAUCUUU | 10.1 |
| Id_ii_S2_P3E.2_K3.1_C3.2_[C-2A]_[T-1A]_H3.1_A3.1_F3.1_T3.2_[A10G] (ssRNA) RNA: UUUGAUUAAUAUGAUAUCGUUCUUUCUAAUGUAUAUAUGUUCUUUCUCGAUAUCAUAUUAAUCUUU | 7.2 |
| Id_ii_S2_P3E.2_K3.1_C3.2_[C-2A]_[T-1A]_H3.1_A3.1_F3.1_T3.2_[A10T] (ssRNA) RNA: UUUGAUUAAUAUGAUAUCGUUCUUUCUAAUGUAUAUAUUUUCUUUCUCGAUAUCAUAUUAAUCUUU | 6.37 |
| Id_ii_S2_P3E.2_K3.1_C3.2_[C-2A]_H3.1_A3.1_F3.1_T3.2_[T9C]_[A10G] (ssRNA) RNA: UUUGAUUAAUAUGAUAUCGUUCUUUCUAUUGUAUAUACGUUCUUUCUCGAUAUCAUAUUAAUCUUU | 19 |
| Id_ii_S2_P3E.2_K3.1_C3.2_[C-2A]_H3.1_A3.1_F3.1_T3.2_[T9C]_[A10C] (ssRNA) RNA: UUUGAUUAAUAUGAUAUCGUUCUUUCUAUUGUAUAUACCUUCUUUCUCGAUAUCAUAUUAAUCUUU | 6.81 |
| UCUCUUUAUAUUAAUAUCUCUU (ssRNA) [Ib_S1_P5E.1_K5.1_C5.1_H5.1_[G2A]_A5.1_F5.1_[T8A]_T5.1] | 698 |

| Binder | Kd [nM] |
| --- | --- |
| Id_ii_S2_P3E.2_K3.1_C3.2_[C-2A]_H3.1_A3.1_F3.1_T3.2_[T9C]_[A10T] (ssRNA) RNA: UUUGAUUAAUAUGAUAUCGUUCUUUCUAUUGUAUAUACUUUCUUUCUCGAUAUCAUAUUAAUCUUU | 8.7 |
| Id_ii_S2_P3E.2_K3.1_C3.2_[C-2A]_H3.1_A3.1_F3.1_T3.2_[A10T] (ssRNA) RNA: UUUGAUUAAUAUGAUAUCGUUCUUUCUAUUGUAUAUAUUUUCUUUCUCGAUAUCAUAUUAAUCUUU | 3.05 |
| Id_ii_S2_P3E.2_K3.1_C3.2_[C-2A]_H3.1_A3.1_F3.1_T3.2 (ssRNA) RNA: UUUGAUUAAUAUGAUAUCGUUCUUUCUAUUGUAUAUAUAUUCUUUCUCGAUAUCAUAUUAAUCUUU | 5.13 |
| Id_ii_S2_P3E.2_K3.1_C3.2_[T-1G]_H3.1_A3.1_F3.1_T3.2_[T9G]_[A10G] (ssRNA) RNA: UUUGAUUAAUAUGAUAUCGUUCUUUCUCGUGUAUAUAGGUUCUUUCUCGAUAUCAUAUUAAUCUUU | 10.2 |
| Id_ii_S2_P3E.2_K3.1_C3.2_[T-1G]_H3.1_A3.1_F3.1_T3.2_[T9A]_[A10G] (ssRNA) RNA: UUUGAUUAAUAUGAUAUCGUUCUUUCUCGUGUAUAUAAGUUCUUUCUCGAUAUCAUAUUAAUCUUU | 7.62 |
| Id_ii_S2_P3E.2_K3.1_C3.2_[T-1G]_H3.1_A3.1_F3.1_T3.2_[T9A]_[A10T] (ssRNA) RNA: UUUGAUUAAUAUGAUAUCGUUCUUUCUCGUGUAUAUAAUUUCUUUCUCGAUAUCAUAUUAAUCUUU | 1.85 |
| Id_ii_S2_P3E.2_K3.1_C3.2_[T-1G]_H3.1_A3.1_F3.1_T3.2_[A10T] (ssRNA) RNA: UUUGAUUAAUAUGAUAUCGUUCUUUCUCGUGUAUAUAUUUUCUUUCUCGAUAUCAUAUUAAUCUUU | 1.39 |
| Id_ii_S2_P3E.2_K3.1_C3.2_[T-1C]_H3.1_A3.1_F3.1_T3.2_[T9G]_[A10T] (ssRNA) RNA: UUUGAUUAAUAUGAUAUCGUUCUUUCUCCUGUAUAUAGUUUCUUUCUCGAUAUCAUAUUAAUCUUU | 2.32 |
| Id_ii_S2_P3E.2_K3.1_C3.2_[T-1C]_H3.1_A3.1_F3.1_T3.2_[T9C]_[A10G] (ssRNA) RNA: UUUGAUUAAUAUGAUAUCGUUCUUUCUCCUGUAUAUACGUUCUUUCUCGAUAUCAUAUUAAUCUUU | 4.24 |
| Id_ii_S2_P3E.2_K3.1_C3.2_[T-1C]_H3.1_A3.1_F3.1_T3.2_[T9A]_[A10G] (ssRNA) RNA: UUUGAUUAAUAUGAUAUCGUUCUUUCUCCUGUAUAUAAGUUCUUUCUCGAUAUCAUAUUAAUCUUU | 4.04 |
| UCUCUUUGCAUUACUAUCUCUU (ssRNA) [Ib_S1_P5E.1_K5.1_C5.1_H5.1_[T3C]_A5.1_F5.1_[T8C]_T5.1] | 1370 |
| Id_ii_S2_P3E.2_K3.1_C3.2_[T-1C]_H3.1_A3.1_F3.1_T3.2_[T9A]_[A10C] (ssRNA) RNA: UUUGAUUAAUAUGAUAUCGUUCUUUCUCCUGUAUAUAACUUCUUUCUCGAUAUCAUAUUAAUCUUU | 2.58 |
| Id_ii_S2_P3E.2_K3.1_C3.2_[T-1C]_H3.1_A3.1_F3.1_T3.2_[T9A]_[A10T] (ssRNA) RNA: UUUGAUUAAUAUGAUAUCGUUCUUUCUCCUGUAUAUAAUUUCUUUCUCGAUAUCAUAUUAAUCUUU | 1.48 |
| Id_ii_S2_P3E.2_K3.1_C3.2_[T-1C]_H3.1_A3.1_F3.1_T3.2_[A10C] (ssRNA) RNA: UUUGAUUAAUAUGAUAUCGUUCUUUCUCCUGUAUAUAUCUUCUUUCUCGAUAUCAUAUUAAUCUUU | 0.998 |
| Id_ii_S2_P3E.2_K3.1_C3.2_[T-1C]_H3.1_A3.1_F3.1_T3.2_[A10T] (ssRNA) RNA: UUUGAUUAAUAUGAUAUCGUUCUUUCUCCUGUAUAUAUUUUCUUUCUCGAUAUCAUAUUAAUCUUU | 1.22 |
| Id_ii_S2_P3E.2_K3.1_C3.2_[T-1A]_H3.1_A3.1_F3.1_T3.2_[T9G]_[A10T] (ssRNA) RNA: UUUGAUUAAUAUGAUAUCGUUCUUUCUCAUGUAUAUAGUUUCUUUCUCGAUAUCAUAUUAAUCUUU | 3.93 |
| Id_ii_S2_P3E.2_K3.1_C3.2_[T-1A]_H3.1_A3.1_F3.1_T3.2_[T9C]_[A10T] (ssRNA) RNA: UUUGAUUAAUAUGAUAUCGUUCUUUCUCAUGUAUAUACUUUCUUUCUCGAUAUCAUAUUAAUCUUU | 5.2 |
| Id_ii_S2_P3E.2_K3.1_C3.2_[T-1A]_H3.1_A3.1_F3.1_T3.2_[T9A]_[A10G] (ssRNA) RNA: UUUGAUUAAUAUGAUAUCGUUCUUUCUCAUGUAUAUAAGUUCUUUCUCGAUAUCAUAUUAAUCUUU | 15.2 |
| Id_ii_S2_P3E.2_K3.1_C3.2_[T-1A]_H3.1_A3.1_F3.1_T3.2_[T9A]_[A10T] (ssRNA) RNA: UUUGAUUAAUAUGAUAUCGUUCUUUCUCAUGUAUAUAAUUUCUUUCUCGAUAUCAUAUUAAUCUUU | 2.96 |
| Id_ii_S2_P3E.2_K3.1_C3.2_[T-1A]_H3.1_A3.1_F3.1_T3.2_[T9A] (ssRNA) RNA: UUUGAUUAAUAUGAUAUCGUUCUUUCUCAUGUAUAUAAAUUCUUUCUCGAUAUCAUAUUAAUCUUU | 3.89 |
| Id_ii_S2_P3E.2_K3.1_C3.2_[T-1A]_H3.1_A3.1_F3.1_T3.2_[A10C] (ssRNA) RNA: UUUGAUUAAUAUGAUAUCGUUCUUUCUCAUGUAUAUAUCUUCUUUCUCGAUAUCAUAUUAAUCUUU | 2.36 |
| UCUCUUUGUUUUAGUAUCUCUU (ssRNA) [Ib_S1_P5E.1_K5.1_C5.1_H5.1_[A4T]_A5.1_F5.1_[T8G]_T5.1] | 70.8 |
| Id_ii_S2_P3E.2_K3.1_C3.2_[T-1A]_H3.1_A3.1_F3.1_T3.2_[A10T] (ssRNA) RNA: UUUGAUUAAUAUGAUAUCGUUCUUUCUCAUGUAUAUAUUUUCUUUCUCGAUAUCAUAUUAAUCUUU | 1.78 |
